Source: patent US20070192883A1

Assays:
[1] = molecular target: TAT-028 protein on the surface of human tumor cell lines (NCI-H460, HEK293, HepG2) (human) (UniProt P80723); assay: flow cytometry on HepG2 cells; secondary antibody only, background control
[2] = molecular target: TAT-028 protein on the surface of human tumor cell lines (NCI-H460, HEK293, HepG2) (human) (UniProt P80723); assay: flow cytometry on HEK293 cells; secondary antibody only, background control
[3] = molecular target: TAT-028 protein on the surface of human tumor cell lines (NCI-H460, HEK293, HepG2) (human) (UniProt P80723); assay: flow cytometry on NCI-H460 cells; secondary antibody only, background control

Chain of UniProt P80723 (P80723 2-227 limits assumed): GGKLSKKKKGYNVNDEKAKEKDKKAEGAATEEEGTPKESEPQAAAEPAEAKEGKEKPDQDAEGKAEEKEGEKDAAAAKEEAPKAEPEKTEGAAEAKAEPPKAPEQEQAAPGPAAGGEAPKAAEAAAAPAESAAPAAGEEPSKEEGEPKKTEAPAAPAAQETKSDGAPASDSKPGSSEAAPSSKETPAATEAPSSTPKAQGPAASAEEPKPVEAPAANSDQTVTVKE

PE-conjugated anti-mouse IgG (antibody)
geometric mean fluorescence (geometric mean fluorescence units) [1]: 178
geometric mean fluorescence (geometric mean fluorescence units) [2]: 124
geometric mean fluorescence (geometric mean fluorescence units) [3]: 37
